Publication PMC2966277 (Cell, 2010)

Assays:
[1] = molecular target: microtubules (UniProt Q6B856 1-445); assay: co-sedimentation
[2] = molecular target: the molecule itself; assay: SEC-MALS
[3] = molecular target: T1, GFP-PRC1-FL (GFP-tagged full-length PRC1, aa 1-620) (human), O43663; assay: single-molecule fluorescence intensity analysis; conditions: remark: other sources report otherwise
T1 chain: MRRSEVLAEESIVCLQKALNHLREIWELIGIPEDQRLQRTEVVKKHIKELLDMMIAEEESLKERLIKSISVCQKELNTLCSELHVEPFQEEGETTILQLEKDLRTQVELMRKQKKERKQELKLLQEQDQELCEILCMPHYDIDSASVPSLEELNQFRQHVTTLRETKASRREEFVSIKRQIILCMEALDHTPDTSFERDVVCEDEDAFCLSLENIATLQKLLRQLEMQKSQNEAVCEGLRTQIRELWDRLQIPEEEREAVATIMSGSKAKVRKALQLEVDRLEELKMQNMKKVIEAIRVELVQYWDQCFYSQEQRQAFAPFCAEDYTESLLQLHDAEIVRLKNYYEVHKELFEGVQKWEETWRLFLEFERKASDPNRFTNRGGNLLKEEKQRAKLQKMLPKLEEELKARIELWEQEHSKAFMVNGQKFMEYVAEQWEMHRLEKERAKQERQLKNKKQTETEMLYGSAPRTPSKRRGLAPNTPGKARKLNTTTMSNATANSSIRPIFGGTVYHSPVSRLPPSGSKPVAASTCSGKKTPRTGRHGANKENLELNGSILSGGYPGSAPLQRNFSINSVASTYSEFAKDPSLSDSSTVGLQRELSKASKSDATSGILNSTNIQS

[4] = molecular target: T2, PRC1-FL (untagged full-length PRC1) (human), O43663; conditions: remark: other sources report otherwise
T2 chain: T1 chain

B1: PRC1-SC (aa 341-620) (domain or fragment, human, UniProt O43663 341-620, looked up)
chain: LKNYYEVHKELFEGVQKWEETWRLFLEFERKASDPNRFTNRGGNLLKEEKQRAKLQKMLPKLEEELKARIELWEQEHSKAFMVNGQKFMEYVAEQWEMHRLEKERAKQERQLKNKKQTETEMLYGSAPRTPSKRRGLAPNTPGKARKLNTTTMSNATANSSIRPIFGGTVYHSPVSRLPPSGSKPVAASTCSGKKTPRTGRHGANKENLELNGSILSGGYPGSAPLQRNFSINSVASTYSEFAKDPSLSDSSTVGLQRELSKASKSDATSGILNSTNIQS
For B1, the Kd [1] was 0.6 ± 0.3 µM.

B2: PRC1-S (aa 341-466) (domain or fragment, human, UniProt O43663 341-466, looked up)
chain: LKNYYEVHKELFEGVQKWEETWRLFLEFERKASDPNRFTNRGGNLLKEEKQRAKLQKMLPKLEEELKARIELWEQEHSKAFMVNGQKFMEYVAEQWEMHRLEKERAKQERQLKNKKQTETEMLYGS
Binder B2 has a Kd [1] of 3.3 ± 1.8 µM.

B3: PRC1-NSΔC (aa 1-486) (domain or fragment, human, UniProt O43663 1-486, looked up)
chain: MRRSEVLAEESIVCLQKALNHLREIWELIGIPEDQRLQRTEVVKKHIKELLDMMIAEEESLKERLIKSISVCQKELNTLCSELHVEPFQEEGETTILQLEKDLRTQVELMRKQKKERKQELKLLQEQDQELCEILCMPHYDIDSASVPSLEELNQFRQHVTTLRETKASRREEFVSIKRQIILCMEALDHTPDTSFERDVVCEDEDAFCLSLENIATLQKLLRQLEMQKSQNEAVCEGLRTQIRELWDRLQIPEEEREAVATIMSGSKAKVRKALQLEVDRLEELKMQNMKKVIEAIRVELVQYWDQCFYSQEQRQAFAPFCAEDYTESLLQLHDAEIVRLKNYYEVHKELFEGVQKWEETWRLFLEFERKASDPNRFTNRGGNLLKEEKQRAKLQKMLPKLEEELKARIELWEQEHSKAFMVNGQKFMEYVAEQWEMHRLEKERAKQERQLKNKKQTETEMLYGSAPRTPSKRRGLAPNTPGKAR
B3 was tested, and the “stoichiometry N” value [2] was 2.

B4: GFP-PRC1-FL (GFP-tagged full-length PRC1, aa 1-620), O43663 1-620 (natural protein)
chain: T1 chain
With B4 the stoichiometry N [3] was 2.

B5: PRC1-FL (untagged full-length PRC1), O43663 1-620 (natural protein)
chain: T1 chain
In the case of B5, the stoichiometry N [4] is reported as 2.
